Biological target: Bax (Homo sapiens, UniProt Q07812)
Type: biochemical
Conditions: 100 nM Bax, 10 μM compound or 20 nM cBid/Bim, no membranes, DSS

Sequence of Bax (Q07812 whole entry): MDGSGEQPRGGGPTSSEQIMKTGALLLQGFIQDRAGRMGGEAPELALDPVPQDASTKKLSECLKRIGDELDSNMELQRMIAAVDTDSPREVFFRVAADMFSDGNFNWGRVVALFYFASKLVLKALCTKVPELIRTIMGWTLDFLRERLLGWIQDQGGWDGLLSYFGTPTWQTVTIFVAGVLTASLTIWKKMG

formation of dimers and higher-order Bax oligomers in solution: no effects
B1: cBid: known Bax activator protein, pro-apoptotic BH3 protein, recombinant (protein, UniProt P55957 61-195, looked up)
BH3-interacting domain death …: GNRSSHSRLGRIEADSESQEDIIRNIARHLAQVGDSMDRSIPPGLVNGLALQLRNTSRSEEDRNRDLATALEQLLQAYPRDMEKEKTMLVLALLLAKKVASHTPSLLRDVFHTTVNFINQNLRTYVRSLARNGMD
modifications: BH3-interacting domain death agonist p15
